Test results as given in publication PMC8170004 (iScience, 2021).

Legend:
[1] = molecular target: T1, Human GDF8, biotinylated (human, UniProt O14793 267-375, biotin (Biotin Labeling Kit-NH2)); test: ELISA
T1 sequence: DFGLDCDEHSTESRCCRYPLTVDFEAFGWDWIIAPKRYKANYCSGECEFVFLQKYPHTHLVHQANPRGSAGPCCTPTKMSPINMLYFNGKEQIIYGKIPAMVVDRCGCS

[2] = molecular target: T2, Human GDF11, biotinylated (human, UniProt O95390 299-407, biotin (Biotin Labeling Kit-NH2)); test: ELISA
T2 sequence: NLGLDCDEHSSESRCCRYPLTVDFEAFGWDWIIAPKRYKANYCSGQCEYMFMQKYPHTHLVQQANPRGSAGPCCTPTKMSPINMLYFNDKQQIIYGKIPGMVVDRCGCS

B1: Bivalent Human FSTL3-Fc (Fc fusion)
chain: MGSGNPAPGGVCWLQQGQEATCSLVLQTDVTRAECCASGNIDTAWSNLTHPGNKINLLGFLGLVHCLPCKDSCDGVECGPGKACRMLGGRPRCECAPDCSGLPARLQVCGSDGATYRDECELRAARCRGHPDLSVMYRGRCRKSCEHVVCPRPQSCVVDQTGSAHCVVCRAAPCPVPSSPGQELCGNNNVTYISSCHMRQATCFLGRSIGVRHAGSCAGTPEEPPGGESAEEEENFV
[1]
  binding result: binds
[2]
  binding result: binds
